Measurements as given in patent US20170296640A1 (IMMATICS BIOTECHNOLOGIES, published 2017).

target: T1, HLA-A*02:01 (peptide-receptive MHC class I monomer after UV cleavage of the UV-sensitive ligand) (human); experiment: UV ligand-exchange ELISA; exchange yield grade (+ >=10%, ++ >=20%, +++ >=50%, ++++ >=75%)
T1 construct: MHC monomers loaded by UV-ligand exchange and captured on streptavidin plates
Text: Candidate peptides for T cell based therapies according to the present invention were further tested for their MHC binding capacity (affinity). The individual peptide-MHC complexes were produced by UV-ligand exchange, where a UV-sensitive peptide is cleaved upon UV-irradiation, and exchanged with the peptide of interest as analyzed. Only peptide candidates that can effectively bind and stabilize the peptide-receptive MHC molecules prevent dissociation of the MHC complexes. To determine the yield of the exchange reaction, an ELISA was performed based on the detection of the light chain (β2m) of stabilized MHC complexes. The assay was performed as generally described in Rodenko et al. (Rodenko et al., 2006).
96 well MAXISorp plates (NUNC) were coated over night with 2 ug/ml streptavidin in PBS at room temperature, washed 4× and blocked for 1 h at 37° C. in 2% BSA containing blocking buffer. Refolded HLA-A*02:01/MLA-001 monomers served as standards, covering the range of 15-500 ng/ml. Peptide-MHC monomers of the UV-exchange reaction were diluted 100 fold in blocking buffer. Samples were incubated for 1 h at 37° C., washed four times, incubated with 2 ug/ml HRP conjugated anti-β2m for 1 h at 37° C., washed again and detected with TMB solution that is stopped with […]. Absorption was measured at 450 nm. Candidate peptides that show a high exchange yield (preferably higher than 50%, most preferred higher than 75%) are generally preferred for a generation and production of antibodies or fragments thereof, and/or T cell receptors or fragments thereof, as they show sufficient avidity to the MHC molecules and prevent dissociation of the MHC complexes.

| Binder | peptide exchange yield |
| --- | --- |
| AVLGTSWQL [AVLGTSWQL (SEQ ID NO: 184)] | 50 to 75% |
| FIAQLNNVEL [FIAQLNNVEL (SEQ ID NO: 185)] | 50 to 75% |
| GLEDEMYEV [GLEDEMYEV (SEQ ID NO: 188)] | 20 to 50% |
| GLIELVDQL [GLIELVDQL (SEQ ID NO: 190)] | 50 to 75% |
| ALDQFLEGI [ALDQFLEGI (SEQ ID NO: 218)] | 50 to 75% |
| GLSDISAQV [GLSDISAQV (SEQ ID NO: 191)] | 50 to 75% |
| FLAEQFEFL [FLAEQFEFL (SEQ ID NO: 210)] | 50 to 75% |
| AQFGAVLEV [AQFGAVLEV (SEQ ID NO: 217)] | 50 to 75% |
| FLAPDNSLLLA [FLAPDNSLLLA (SEQ ID NO: 221)] | ≥ 75% |
| FIDDLFAFV [FIDDLFAFV (SEQ ID NO: 211)] | 50 to 75% |
| GMAAEVPKV [GMAAEVPKV (SEQ ID NO: 192)] | 20 to 50% |
| FLAVSLPLL [FLAVSLPLL (SEQ ID NO: 208)] | 50 to 75% |
| ALIPDLNQI [ALIPDLNQI (SEQ ID NO: 195)] | 50 to 75% |
| FLNSFVFKM [FLNSFVFKM (SEQ ID NO: 187)] | 20 to 50% |
| FLAEAPTAL [FLAEAPTAL (SEQ ID NO: 220)] | 20 to 50% |
| FLFDGSMSL [FLFDGSMSL (SEQ ID NO: 214)] | 50 to 75% |
| ALLELENSV [ALLELENSV (SEQ ID NO: 219)] | 20 to 50% |
| KLLEEIEFL [KLLEEIEFL (SEQ ID NO: 165)] | 50 to 75% |
| ALKKHLTSV [ALKKHLTSV (SEQ ID NO: 22)] | 50 to 75% |
| FLIGQGAHV [FLIGQGAHV (SEQ ID NO: 212)] | 50 to 75% |
| ILDTIFHKV [ILDTIFHKV (SEQ ID NO: 203)] | 50 to 75% |
| GILQLVESV [GILQLVESV (SEQ ID NO: 180)] | 50 to 75% |
| GLLSAVSSV [GLLSAVSSV (SEQ ID NO: 198)] | 50 to 75% |
| FLIETGTLL [FLIETGTLL (SEQ ID NO: 222)] | 50 to 75% |
| FLDVSRDFV [FLDVSRDFV (SEQ ID NO: 186)] | 20 to 50% |
| FLLDTISGL [FLLDTISGL (SEQ ID NO: 209)] | 50 to 75% |
| ALFKEAYSL [ALFKEAYSL (SEQ ID NO: 21)] | 50 to 75% |
| ALAAGGYDV [ALAAGGYDV (SEQ ID NO: 202)] | 20 to 50% |
| GLVGLLEQA [GLVGLLEQA (SEQ ID NO: 207)] | ≥ 75% |
| FVDTNLYFL [FVDTNLYFL (SEQ ID NO: 179)] | 50 to 75% |

Results, then the binder that gave them:

| peptide exchange yield | Binder |
| --- | --- |
| 20 to 50% | QLFEEEIEL [QLFEEEIEL (SEQ ID NO: 215)] |
| 20 to 50% | TLIAAILYL [TLIAAILYL (SEQ ID NO: 16)] |
| 50 to 75% | YLHIYESQL [YLHIYESQL (SEQ ID NO: 176)] |
| ≥ 75% | SIFDAVLKGV [SIFDAVLKGV (SEQ ID NO: 163)] |
| 50 to 75% | VLFETVLTI [VLFETVLTI (SEQ ID NO: 183)] |
| ≥ 75% | VILDSVASV [VILDSVASV (SEQ ID NO: 173)] |
| 50 to 75% | LLFDQNDKV [LLFDQNDKV (SEQ ID NO: 181)] |
| 20 to 50% | YINEDEYEV [YINEDEYEV (SEQ ID NO: 213)] |
| 20 to 50% | KVVSNLPAI [KVVSNLPAI (SEQ ID NO: 216)] |
| ≥ 75% | RLADLKVSI [RLADLKVSI (SEQ ID NO: 162)] |
| 50 to 75% | SLFDGAVISTV [SLFDGAVISTV (SEQ ID NO: 164)] |
| 50 to 75% | YLYEAEEATTL [YLYEAEEATTL (SEQ ID NO: 177)] |
| 50 to 75% | SSLEENLLHQV [SSLEENLLHQV (SEQ ID NO: 169)] |
| 50 to 75% | SLNSTTWKV [SLNSTTWKV (SEQ ID NO: 199)] |
| ≥ 75% | TLQDSLEFI [TLQDSLEFI (SEQ ID NO: 172)] |
| 20 to 50% | RLCDIVVNV [RLCDIVVNV (SEQ ID NO: 204)] |
| 50 to 75% | SLLSPLLSV [SLLSPLLSV (SEQ ID NO: 168)] |
| ≥ 75% | TLLDVISAL [TLLDVISAL (SEQ ID NO: 171)] |

| peptide exchange yield | Binder |
| --- | --- |
| ≥ 75% | VLVEITDVDFAA [VLVEITDVDFAA (SEQ ID NO: 174)] |
| 50 to 75% | VIIPLLSSV [VIIPLLSSV (SEQ ID NO: 17)] |
| 50 to 75% | VMESILLRL [VMESILLRL (SEQ ID NO: 175)] |
| 50 to 75% | SLFSITKSV [SLFSITKSV (SEQ ID NO: 167)] |
| ≥ 75% | VLEAILPLV [VLEAILPLV (SEQ ID NO: 19)] |
| 50 to 75% | KLTDQPPLV [KLTDQPPLV (SEQ ID NO: 18)] |
| 20 to 50% | SAVSGQWEV [SAVSGQWEV (SEQ ID NO: 206)] |
| 50 to 75% | SLSHLVPAL [SLSHLVPAL (SEQ ID NO: 189)] |
| 20 to 50% | SLAPFDREPFTL [SLAPFDREPFTL (SEQ ID NO: 194)] |
| 20 to 50% | SLADSMPSL [SLADSMPSL (SEQ ID NO: 193)] |
| 50 to 75% | TLFYESPHL [TLFYESPHL (SEQ ID NO: 205)] |
| 50 to 75% | YLNISQVNV [YLNISQVNV (SEQ ID NO: 201)] |
| ≥ 75% | YLLDFEDRL [YLLDFEDRL (SEQ ID NO: 200)] |
| 20 to 50% | YLLTDNVVKL [YLLTDNVVKL (SEQ ID NO: 197)] |
| 50 to 75% | YVLQGEFFL [YVLQGEFFL (SEQ ID NO: 178)] |
| 50 to 75% | NLMLELETV [NLMLELETV (SEQ ID NO: 161)] |
| ≥ 75% | LLPPPPPVA [LLPPPPPVA (SEQ ID NO: 182)] |
| 50 to 75% | LLSEETPSA [LLSEETPSA (SEQ ID NO: 2)] |
